Measurements as given in paper PMC3422339, “Interactions and CCAAT-Binding of Arabidopsis thaliana NF-Y Subunits” (PLoS ONE, 2012).
Values belong to the binder of their own block, whether it stands above or below them.

Experiments:
Conditions in all cases: both partners purified
[1] = molecular target: T1, AtNF-YB2/AtNF-YC3 dimer (recombinant, renatured together) (Arabidopsis thaliana, UniProt Q9FGJ3 1-190; Q9ZVL3 1-217); experiment: native gel or EMSA; Figure 5A: recombinant AtNF-YB/AtNF-YC dimers with recombinant AtNF-YA6 or recombinant mouse NF-YA; 32P-labelled CCAAT oligonucleotide; NF-Y buffer, 15 min 20°C; 4.5% polyacrylamide; the read-out is the trimer bound to DNA
T1 construct: AtNF-YB2, Arabidopsis thaliana; as the chain of m23; AtNF-YC3, Arabidopsis thaliana; as the chain of m43; source: E. coli, each subunit purified from inclusion bodies, denatured and renatured when mixed together
T1 sequence (looked up) 1: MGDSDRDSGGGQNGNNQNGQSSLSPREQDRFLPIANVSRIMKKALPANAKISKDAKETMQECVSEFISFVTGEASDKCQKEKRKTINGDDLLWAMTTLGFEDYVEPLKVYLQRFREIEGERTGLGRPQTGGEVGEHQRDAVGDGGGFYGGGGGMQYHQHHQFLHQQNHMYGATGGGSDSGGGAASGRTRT
T1 sequence (looked up) 2: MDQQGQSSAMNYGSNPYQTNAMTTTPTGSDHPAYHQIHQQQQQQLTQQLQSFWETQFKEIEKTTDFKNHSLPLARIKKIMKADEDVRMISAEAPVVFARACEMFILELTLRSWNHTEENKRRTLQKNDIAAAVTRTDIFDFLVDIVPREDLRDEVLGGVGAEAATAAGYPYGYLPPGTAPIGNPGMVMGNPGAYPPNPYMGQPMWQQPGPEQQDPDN

[2] = molecular target: T2, His-tagged recombinant AtNF-YC3 (Arabidopsis thaliana, UniProt Q9ZVL3 1-217); experiment: co-renaturation of denatured subunits; single His-tagged HFD subunits from E. coli inclusion bodies, denatured and renatured when mixed together
T2 construct: AtNF-YC3, Arabidopsis thaliana; source: E. coli, purified (Nickel-agarose); found in inclusion bodies, denatured and renatured
T2 sequence (looked up): T1 sequence (looked up) 2

[3] = molecular target: T3, His-tagged recombinant AtNF-YC7 (Arabidopsis thaliana, UniProt Q9FGP8 1-212); experiment: as above
T3 construct: AtNF-YC7, Arabidopsis thaliana; source: E. coli, purified (Nickel-agarose); found in inclusion bodies, denatured and renatured
T3 sequence (looked up): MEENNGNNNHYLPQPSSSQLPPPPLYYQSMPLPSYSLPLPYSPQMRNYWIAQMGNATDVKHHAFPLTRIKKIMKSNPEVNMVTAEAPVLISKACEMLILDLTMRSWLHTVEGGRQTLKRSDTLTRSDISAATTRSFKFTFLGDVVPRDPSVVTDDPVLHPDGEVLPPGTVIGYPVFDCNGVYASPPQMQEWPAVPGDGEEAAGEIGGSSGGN

binding result [1]: binds
B1: recombinant mouse NF-YA (347 residues) (natural protein)
chain: not shown
notes: mouse NF-YA; 347 residues as printed; source: recombinant

binding result [2]: binds
binding result [3]: binds
B2: His-tagged recombinant AtNF-YB2 (natural protein, Arabidopsis thaliana, UniProt Q9FGJ3 1-190, looked up)
chain: T1 sequence (looked up) 1
notes: AtNF-YB2, Arabidopsis thaliana; also called His-AtNF-YB2; source: E. coli BL21, purified (Nickel-agarose); found in inclusion bodies, denatured and renatured

binding result [1]: binds
B3: recombinant AtNF-YA6 (His-tagged) (natural protein)
chain: not shown
notes: AtNF-YA6, Arabidopsis thaliana; 308 residues as printed; source: E. coli, purified (Nickel-agarose)
